Results published in PMC11441081 (2024).

How the values were obtained:
[1] = target: T1, EIV-HA protein (hemagglutinin of equine influenza virus H3N8), wild type (equine influenza virus (H3N8)); experiment: SPR
[2] = target: T1, EIV-HA protein (hemagglutinin of equine …); experiment: SPR; remark: listed apart in the source
[3] = target: T1, EIV-HA protein (hemagglutinin of equine …); experiment: ELISA

B1: H81 recombinant antibody (equine Ig (Fab)2 recombined with homo Ig Fc) (antibody, V domains shown)
VH: QVQLKESGPGLVKPSQTLSLTCTVSGLSLSSDAVGWVRQAPGKGLEWVACIYGDESTYYNPALKSRAGITKDTSKSQVYLTLNSLTGEDTAVYYCAGLVYEYYAGTWTIVFELKYWGQGILVTVSS
VL: QSLTQPASVSGTLGQTVTISCSGSSSNIGHRYSTVGWYQQIPGTAPKTLIYGSDKRASGVPDRFSGSKSGNTATLTISGLQAEDEADYYCGSYYYASSDSSGGAFGGGTHLTIA
For B1, which Kd [1] is on record?
Its Kd is 10.1 nM.

What about the koff [2] of the same binder?
The koff was 8.52e-05 s⁻¹.

And the EC50 [3]?
The EC50 was 4.2 ng/mL.
